System: FMC63
Test: CD19 variant binding to anti-CD19 antibody FMC63 (score)

Chain of FMC63 (as listed by the source): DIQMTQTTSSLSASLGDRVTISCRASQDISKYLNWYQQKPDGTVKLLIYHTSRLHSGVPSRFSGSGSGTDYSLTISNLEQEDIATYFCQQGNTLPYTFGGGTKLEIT
Chain of FMC63 (as listed by the source): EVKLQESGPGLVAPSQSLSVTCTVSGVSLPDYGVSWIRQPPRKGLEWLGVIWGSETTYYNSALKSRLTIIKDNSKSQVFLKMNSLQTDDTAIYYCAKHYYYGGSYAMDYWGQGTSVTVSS

Molecule	FMC63 Binding Score (Table 1A, CD19 single mutants (positions of SEQ ID NO:2))	FMC63 Binding Score (Table 1B, CD19 triple mutants)
W262K: CD19 variant (protein) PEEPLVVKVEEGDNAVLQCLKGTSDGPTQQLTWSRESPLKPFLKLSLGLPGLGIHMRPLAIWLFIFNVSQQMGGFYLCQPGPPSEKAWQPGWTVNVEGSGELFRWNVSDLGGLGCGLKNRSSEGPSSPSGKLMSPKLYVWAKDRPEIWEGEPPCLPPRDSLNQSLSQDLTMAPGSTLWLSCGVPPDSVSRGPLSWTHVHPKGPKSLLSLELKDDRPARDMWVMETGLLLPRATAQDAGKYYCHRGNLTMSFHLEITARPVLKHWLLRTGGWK	8.2 ± .7	–
W62E/F64R/F66P: CD19 variant (protein) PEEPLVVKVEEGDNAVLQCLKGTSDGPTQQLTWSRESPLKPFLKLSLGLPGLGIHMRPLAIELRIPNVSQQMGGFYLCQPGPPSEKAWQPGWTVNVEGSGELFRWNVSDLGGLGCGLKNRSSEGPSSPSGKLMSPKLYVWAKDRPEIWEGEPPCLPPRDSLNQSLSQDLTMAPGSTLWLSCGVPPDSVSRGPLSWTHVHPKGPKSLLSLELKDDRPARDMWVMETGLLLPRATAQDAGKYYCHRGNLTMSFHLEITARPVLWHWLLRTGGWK	–	16.5 ± 5.5
W62E/F64V/F66V: CD19 variant (protein) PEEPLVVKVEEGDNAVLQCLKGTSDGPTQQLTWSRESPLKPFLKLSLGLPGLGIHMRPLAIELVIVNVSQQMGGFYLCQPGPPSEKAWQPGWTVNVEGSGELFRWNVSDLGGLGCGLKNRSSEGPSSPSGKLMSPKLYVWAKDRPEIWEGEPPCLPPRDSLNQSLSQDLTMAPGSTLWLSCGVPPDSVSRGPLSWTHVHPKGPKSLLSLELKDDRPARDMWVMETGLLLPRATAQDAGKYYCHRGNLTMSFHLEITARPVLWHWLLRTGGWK	–	13.4 ± 2.5
W62D/F64L/F66P: CD19 variant (protein) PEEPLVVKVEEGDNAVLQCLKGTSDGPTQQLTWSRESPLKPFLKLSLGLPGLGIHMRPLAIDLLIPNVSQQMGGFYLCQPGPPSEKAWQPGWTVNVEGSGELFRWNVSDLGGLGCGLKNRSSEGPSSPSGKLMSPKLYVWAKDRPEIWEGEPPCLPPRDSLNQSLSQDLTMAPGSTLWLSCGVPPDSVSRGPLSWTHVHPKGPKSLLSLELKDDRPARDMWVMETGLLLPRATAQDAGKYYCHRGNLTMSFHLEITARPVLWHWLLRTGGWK	–	16.3 ± 5.5
W62T/F64V/F66P: CD19 variant (protein) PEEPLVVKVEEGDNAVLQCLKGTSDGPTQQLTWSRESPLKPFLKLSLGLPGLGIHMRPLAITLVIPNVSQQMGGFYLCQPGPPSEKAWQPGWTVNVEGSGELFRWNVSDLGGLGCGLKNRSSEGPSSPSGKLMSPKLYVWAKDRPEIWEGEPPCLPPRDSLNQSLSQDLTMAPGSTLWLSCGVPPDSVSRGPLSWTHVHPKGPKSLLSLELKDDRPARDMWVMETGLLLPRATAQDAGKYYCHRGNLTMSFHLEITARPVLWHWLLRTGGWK	–	16.6 ± 5.5
E224G/G226D/L228V: CD19 variant (protein) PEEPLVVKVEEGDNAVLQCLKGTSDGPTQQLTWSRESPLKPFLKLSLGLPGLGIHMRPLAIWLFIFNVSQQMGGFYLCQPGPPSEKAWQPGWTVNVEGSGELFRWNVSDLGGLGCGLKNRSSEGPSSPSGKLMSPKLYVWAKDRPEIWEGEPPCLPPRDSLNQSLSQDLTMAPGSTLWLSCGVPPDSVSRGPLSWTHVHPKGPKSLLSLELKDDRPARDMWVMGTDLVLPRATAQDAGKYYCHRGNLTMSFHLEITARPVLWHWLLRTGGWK	–	12. ± 1.2
E224G/G226E/L228I: CD19 variant (protein) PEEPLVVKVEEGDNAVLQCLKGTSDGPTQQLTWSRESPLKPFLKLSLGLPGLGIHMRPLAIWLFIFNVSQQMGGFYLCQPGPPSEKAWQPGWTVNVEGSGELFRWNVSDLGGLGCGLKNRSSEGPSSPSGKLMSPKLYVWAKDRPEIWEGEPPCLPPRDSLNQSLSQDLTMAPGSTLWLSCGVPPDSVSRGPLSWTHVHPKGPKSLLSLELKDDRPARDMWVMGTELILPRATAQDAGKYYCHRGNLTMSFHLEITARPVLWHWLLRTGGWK	–	14.3 ± 3.4
W62W/F64S/F66S: CD19 variant (protein) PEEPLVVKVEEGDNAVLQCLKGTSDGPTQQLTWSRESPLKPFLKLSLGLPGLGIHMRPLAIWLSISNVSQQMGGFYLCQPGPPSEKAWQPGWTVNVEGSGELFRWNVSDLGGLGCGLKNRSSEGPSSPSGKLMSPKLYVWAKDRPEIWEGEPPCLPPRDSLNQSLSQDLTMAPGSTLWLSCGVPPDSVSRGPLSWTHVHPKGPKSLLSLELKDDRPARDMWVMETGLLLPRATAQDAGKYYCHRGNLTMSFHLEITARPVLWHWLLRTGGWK	–	14. ± 3.2
W62E/F64W/F66R: CD19 variant (protein) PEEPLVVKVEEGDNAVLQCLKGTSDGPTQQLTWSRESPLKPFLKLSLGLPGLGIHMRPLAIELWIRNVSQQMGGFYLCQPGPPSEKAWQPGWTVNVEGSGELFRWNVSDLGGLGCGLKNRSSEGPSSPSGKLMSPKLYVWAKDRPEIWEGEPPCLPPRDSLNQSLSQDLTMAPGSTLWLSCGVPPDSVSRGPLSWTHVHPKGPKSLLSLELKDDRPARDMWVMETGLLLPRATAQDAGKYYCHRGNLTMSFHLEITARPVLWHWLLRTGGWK	–	14.2 ± 3.2
E224G/G226R/L228F: CD19 variant (protein) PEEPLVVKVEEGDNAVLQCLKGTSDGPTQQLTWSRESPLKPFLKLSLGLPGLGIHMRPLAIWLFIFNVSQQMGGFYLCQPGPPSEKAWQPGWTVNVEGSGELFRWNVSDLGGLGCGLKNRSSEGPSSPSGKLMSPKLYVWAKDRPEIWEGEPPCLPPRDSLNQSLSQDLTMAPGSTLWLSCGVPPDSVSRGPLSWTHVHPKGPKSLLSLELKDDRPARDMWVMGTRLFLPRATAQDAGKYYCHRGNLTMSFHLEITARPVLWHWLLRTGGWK	–	12.8 ± 1.7
W62A/F64R/F66L: CD19 variant (protein) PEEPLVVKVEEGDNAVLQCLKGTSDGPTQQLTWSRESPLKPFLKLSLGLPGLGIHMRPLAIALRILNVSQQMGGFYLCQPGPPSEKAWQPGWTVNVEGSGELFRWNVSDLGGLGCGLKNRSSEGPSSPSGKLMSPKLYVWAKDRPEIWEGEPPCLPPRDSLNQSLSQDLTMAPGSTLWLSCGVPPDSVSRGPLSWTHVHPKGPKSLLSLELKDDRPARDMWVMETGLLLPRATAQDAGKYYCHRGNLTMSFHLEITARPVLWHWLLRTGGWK	–	13.1 ± 2.3
W62S/F64R/F66S: CD19 variant (protein) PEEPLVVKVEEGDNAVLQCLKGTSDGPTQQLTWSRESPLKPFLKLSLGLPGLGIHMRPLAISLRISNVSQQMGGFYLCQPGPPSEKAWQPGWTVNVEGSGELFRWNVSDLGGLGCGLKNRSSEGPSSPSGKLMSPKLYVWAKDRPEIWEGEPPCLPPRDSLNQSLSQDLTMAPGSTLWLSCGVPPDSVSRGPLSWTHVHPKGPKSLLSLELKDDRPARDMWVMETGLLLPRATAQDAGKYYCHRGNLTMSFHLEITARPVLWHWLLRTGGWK	–	13.2 ± 2.1

— patent publication US20220387487A1, “COMPOSITIONS AND METHODS FOR TREATMENT OF CANCER” (Aleta Biotherapeutics Inc., priority 2019, published 2022)
